Assay results from patent US20250347705, “Epitope-Specific hCG Binding Aptamers and Applications Thereof” (Rhodes University, published 2025).

Experiments:
[1] = target: bovine serum albumin (BSA) (UniProt P02769 P02769:25-607); assay: ELONA; BSA control beads, not different from No DNA
Description: Protein-modified magnetic beads were prepared by functionalising 1 mg of epoxy beads with either 10 μg of hCG or negative control proteins BSA or HSA (as in Example 2). Once functionalised, aliquots of the beads corresponding to 72 μg beads were added to individual wells of a 96-well plate which were pre-blocked with 3% w/v milk powder (in HMCKN-T buffer composed of 20 mM HEPES, 2 mM MgCl₂, 2 mM CaCl₂, 2 mM KCl, 150 mM NaCl, pH 7.4, supplemented with 0.002% v/v TWEEN 20.) Bead samples were prepared in triplicate.
A variation of the qPCR assay (FIG. 9) was employed using biotinylated aptamer sequences, creating a colourimetric ELONA (FIG. 10). During the colourimetric ELONA study, 5′ biotinylated full-length aptamer sequences were exposed to protein-modified beads—either hCG target or Bovine Serum Albumin (the bovine equivalent of HSA). After rinsing unbound aptamers from the beads, the colorimetric signal, proportional to the amount of biotinylated aptamer present, was generated by the addition of HRP-conjugated streptavidin and the subsequent HRP-catalysed oxidation of TMB.

[2] = target: human chorionic gonadotropin (hCG), alpha/beta heterodimer (Homo sapiens, UniProt P01215;P0DN86 P01215:25-116,P0DN86:21-165); assay: EMSA; very slight band decrease; ELONA signal similar to No DNA; settings: tags: Abcam ab126652, isolated from human urine, >=50% pure; label: 5' biotin
Sequence of human chorionic gonadotropin (hCG), alpha/beta heterodimer (P01215 25-116, chain 1 of 2, other chains not shown): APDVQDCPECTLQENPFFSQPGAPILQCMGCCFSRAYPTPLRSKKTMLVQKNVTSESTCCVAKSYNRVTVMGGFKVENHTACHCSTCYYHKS

Sequence of bovine serum albumin (BSA) (P02769 25-607, one chain of several): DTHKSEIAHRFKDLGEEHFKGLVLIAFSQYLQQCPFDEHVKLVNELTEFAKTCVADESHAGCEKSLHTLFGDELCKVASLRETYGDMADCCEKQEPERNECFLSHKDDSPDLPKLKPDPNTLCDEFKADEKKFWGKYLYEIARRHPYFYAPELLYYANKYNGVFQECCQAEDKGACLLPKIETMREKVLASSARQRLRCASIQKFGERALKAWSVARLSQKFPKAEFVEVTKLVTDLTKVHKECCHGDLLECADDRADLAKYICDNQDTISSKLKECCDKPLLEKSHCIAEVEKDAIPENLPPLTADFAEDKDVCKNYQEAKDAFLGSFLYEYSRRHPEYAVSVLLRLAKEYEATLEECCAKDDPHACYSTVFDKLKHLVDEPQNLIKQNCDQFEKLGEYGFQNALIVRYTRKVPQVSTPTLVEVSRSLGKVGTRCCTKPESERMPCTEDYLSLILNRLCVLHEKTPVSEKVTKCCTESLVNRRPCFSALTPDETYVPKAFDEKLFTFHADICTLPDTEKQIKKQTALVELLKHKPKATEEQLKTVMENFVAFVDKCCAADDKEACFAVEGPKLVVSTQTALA

Binder | binding result ([1]; label: 5' biotin) | binding result [2] | binding result ([1]; label: 5' biotin (3' biotin variant also used))
CAACTATTTCAGTATTCTAGAAAGGTCAAACCTTAGGAGC (ssDNA) [R6_5 truncated] | no binding |  | 
CAAGGATCGGCTCAACTTAATATTGGAGGGATAGTGTTGG (ssDNA) [R5_4 truncated] | no binding |  | 
TGGACGAGGTATCTCGTATCATTGGCACCTAAAACTCCGT (ssDNA) [R4_1 truncated (amplification artefact control)] | no binding | no binding | 
ACCTGCTGACATTGGGTGGGTCCTGAACCATTTTTAATCA (ssDNA) [R4_64 truncated] |  |  | no binding
